Assay results taken from patent publication US20100272706A1, “ANTIVIRALS” (priority 2007, published 2010).

Tested on: vaccinia virus mature virions (EGFP-MV)
Type: cell-based

| Molecule | inhibition of infection by expression of construct | effect of expressed construct on infection |
| --- | --- | --- |
| AID (protein, UniProt Q9GZX7 1-198, looked up) Single-stranded DNA cytosine …: MDSLLMNRRKFLYQFKNVRWAKGRRETYLCYVVKRRDSATSFSLDFGYLRNKNGCHVELLFLRYISDWDLDPGRCYRVTWFTSWSPCYDCARHVADFLRGNPNLSLRIFTARLYFCEDRKAEPEGLRRLHRAGVQIAIMTFKDYFYCWNTFVENHERTFKAWEGLHENSVRLSRQLRRILLPLYEVDDLRDAFRTLGL | 80% |  |
| dominant negative dynamin (K44A) (protein, UniProt Q05193 1-864, looked up, variant K44A) Dynamin-1: MGNRGMEDLIPLVNRLQDAFSAIGQNADLDLPQIAVVGGQSAGASSVLENFVGRDFLPRGSGIVTRRPLVLQLVNATTEYAEFLHCKGKKFTDFEEVRLEIEAETDRVTGTNKGISPVPINLRVYSPHVLNLTLVDLPGMTKVPVGDQPPDIEFQIRDMLMQFVTKENCLILAVSPANSDLANSDALKVAKEVDPQGQRTIGVITKLDLMDEGTDARDVLENKLLPLRRGYIGVVNRSQKDIDGKKDITAALAAERKFFLSHPSYRHLADRMGTPYLQKVLNQQLTNHIRDTLPGLRNKLQSQLLSIEKEVEEYKNFRPDDPARKTKALLQMVQQFAVDFEKRIEGSGDQIDTYELSGGARINRIFHERFPFELVKMEFDEKELRREISYAIKNIHGIRTGLFTPDMAFETIVKKQVKKIREPCLKCVDMVISELISTVRQCTKKLQQYPRLREEMERIVTTHIREREGRTKEQVMLLIDIELAYMNTNHEDFIGFANAQQRSNQMNKKKTSGNQDEILVIRKGWLTINNIGIMKGGSKEYWFVLTAENLSWYKDDEEKEKKYMLSVDNLKLRDVEKGFMSSKHIFALFNTEQRNVYKDYRQLELACETQEEVDSWKASFLRAGVYPERVGDKEKASETEENGSDSFMHSMDPQLERQVETIRNLVDSYMAIVNKTVRDLMPKTIMHLMINNTKEFIFSELLANLYSCGDQNTLMEESAEQAQRRDEMLRMYHALKEALSIIGDINTTTVSTPMPPPVDDSWLQVQSVPAGRRSPTSSPTPQRRAPAVPPARPGSRGPAPGPPPAGSALGGAPPVPSRPGASPDPFGPPPQVPSRPNRAPPGVPSRSGQASPSRPESPRPPFDL |  | no impact |
